Data as given in article doi:10.1101/2025.03.21.644525 (bioRxiv, 2025).

Biological target: T1, ARM domain of APC (residues 338-1010), untagged (Mus musculus, UniProt Q61315 338-1010)
T1 sequence (looked up): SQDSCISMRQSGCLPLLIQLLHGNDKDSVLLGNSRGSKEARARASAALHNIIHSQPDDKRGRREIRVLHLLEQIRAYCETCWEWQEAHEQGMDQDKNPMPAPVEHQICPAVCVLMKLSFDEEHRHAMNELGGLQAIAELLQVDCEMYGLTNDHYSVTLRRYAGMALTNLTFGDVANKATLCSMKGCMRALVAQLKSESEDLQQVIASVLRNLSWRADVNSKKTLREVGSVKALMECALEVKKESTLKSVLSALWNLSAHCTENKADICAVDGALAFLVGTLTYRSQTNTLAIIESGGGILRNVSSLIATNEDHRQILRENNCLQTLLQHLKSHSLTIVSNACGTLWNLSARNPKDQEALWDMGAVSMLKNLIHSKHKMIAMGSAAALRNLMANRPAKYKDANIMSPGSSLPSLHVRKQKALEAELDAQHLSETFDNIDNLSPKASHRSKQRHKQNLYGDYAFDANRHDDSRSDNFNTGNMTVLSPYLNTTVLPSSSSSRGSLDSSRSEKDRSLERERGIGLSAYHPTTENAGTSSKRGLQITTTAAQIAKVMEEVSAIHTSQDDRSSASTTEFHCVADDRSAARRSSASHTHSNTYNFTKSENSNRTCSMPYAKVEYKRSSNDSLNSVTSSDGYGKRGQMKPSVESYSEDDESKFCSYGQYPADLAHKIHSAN
Assay: cryo-EM structure

- binding result: binds
B1: KIF3A C-terminal region (residues 481-701, ACT), N-terminal 6His tag (domain or fragment, Mus musculus, UniProt P28741 481-701, looked up)
chain: VIVGGVDLLAKAEEQEKLLEESNMELEERRRRAEQLRKELEEKEQERLDIEEKYTSLQEEAQGKTKKLKKVWTMLMAAKSEMADLQQEHQREIEGLLENIRQLSRELRLQMLIIDNFIPQDYQEMIENYVHWNEDIGEWQLKCVAYTGNNMRKQTPVPDKKERDPFEVDLSHVYLAYTEESLRQSLMKLERPRTSKGKARPKMGRRKRSAKPETVIDSLLQ
